For 57 variants, abundance fitness results are on record in the Human Domainome abundance scans (Beltran et al. 2025).

The labels stand for the following.
B1: Probable E3 ubiquitin-protein ligase MID2, residues 191 to 235; numbered along this chain, Q9UJV3 (parent)
chain: RGITCLDHENEKVNMYCVSDDQLICALCKLVGRHRDHQVASLNDR

± gives the uncertainty stated by the source.

In the series the parent is B1. In words: abundance fitness (aPCA) (normalised: wild type 0, dead -1); higher = more abundant; growth selection in yeast, the domain comes from the species named. Particulars: Homo sapiens.
In the case of RGITCLDHENEKVNMYCVSDDQLICALCKLVGRHRDHQIASLNDR [V39I], the abundance fitness was -0.153 ± 0.095.
The figure for RGITCLDHENEKVNMYCVSDDQLICALCKLVGRHRDHQHASLNDR [V39H] is 0.067 ± 0.15.
In the case of RGITCLDHENEKVNMYCVSDDQLICALCKLVGRHRDHQGASLNDR [V39G], the abundance fitness is -0.191 ± 0.054.
With RGITCLDHENEKVNMYCVSDDQLICALCKLVGRHRDHQWASLNDR [V39W] the figure was -0.23 ± 0.076.
For RGITCLDHENEKVNMYCVSDDQLICALCKLVGRHRDHQPASLNDR [V39P], the abundance fitness is -0.249 ± 0.13.
With RGITCLDHENEKVNMYCVSDDQLICALCKLVGRHRDHQYASLNDR [V39Y] the figure was -0.335 ± 0.2; with RGITCLDHENEKVNMYCVSDDQLICALCKLVGRHRDHQTASLNDR [V39T], 0.06 ± 0.063; with RGITCLDHENEKVNMYCVSDDQLICALCKLVGRHRDHQEASLNDR [V39E], -0.143 ± 0.068.
Consider RGITCLDHENEKVNMYCVSDDQLICALCKLVGRHRDHQDASLNDR [V39D], for which the abundance fitness is -0.258 ± 0.071.
RGITCLDHENEKVNMYCVSDDQLICALCKLVGRHRDHQMASLNDR [V39M]: the abundance fitness was -0.129 ± 0.095.
For the variant RGITCLDHENEKVNMYCVSDDQLICALCKLVGRHRDHQLASLNDR [V39L], the abundance fitness is -0.079 ± 0.062.
With RGITCLDHENEKVNMYCVSDDQLICALCKLVGRHRDHQCASLNDR [V39C], the abundance fitness is -0.014 ± 0.1.
Take RGITCLDHENEKVNMYCVSDDQLICALCKLVGRHRDHQRASLNDR [V39R]: the abundance fitness is -0.319 ± 0.055.
For the variant RGITCLDHENEKVNMYCVSDDQLICALCKLVGRHRDHQSASLNDR [V39S], the abundance fitness is 0.082 ± 0.11.
Take RGITCLDHENEKVNMYCVSDDQLICALCKLVGRHRDHQQASLNDR [V39Q]: the abundance fitness is -0.081 ± 0.086.
With RGITCLDHENEKVNMYCVSDDQLICALCKLVGRHRDHQKASLNDR [V39K] the figure was -0.449 ± 0.17.
On to RGITCLDHENEKVNMYCVSDDQLICALCKLVGRHRWHQVASLNDR [D36W], for which the abundance fitness was -0.311 ± 0.079.
As for RGITCLDHENEKVNMYCVSDDQLICALCKLVGRHRTHQVASLNDR [D36T], the abundance fitness was -0.176 ± 0.13.
For the variant RGITCLDHENEKVNMYCVSDDQLICALCKLVGRHRIHQVASLNDR [D36I], the abundance fitness was -0.34 ± 0.4.
With RGITCLDHENEKVNMYCVSDDQLICALCKLVGRHRGHQVASLNDR [D36G] the figure was -0.098 ± 0.054; with RGITCLDHENEKVNMYCVSDDQLICALCKLVGRHRLHQVASLNDR [D36L], -0.125 ± 0.06; with RGITCLDHENEKVNMYCVSDDQLICALCKLVGRHRPHQVASLNDR [D36P], -0.311 ± 0.074.
The figure for RGITCLDHENEKVNMYCVSDDQLICALCKLVGRHRCHQVASLNDR [D36C] is -0.278 ± 0.067; for RGITCLDHENEKVNMYCVSDDQLICALCKLVGRHRQHQVASLNDR [D36Q] it is -0.235 ± 0.088; for RGITCLDHENEKVNMYCVSDDQLICALCKLVGRHRVHQVASLNDR [D36V] it is -0.3 ± 0.07.
With RGITCLDHENEKVNMYCVSDDQLICALCKLVGRHRRHQVASLNDR [D36R] the figure was -0.255 ± 0.061; with RGITCLDHENEKVNMYCVSDDQLICALCKLVGRHRAHQVASLNDR [D36A], -0.293 ± 0.085.
With RGITCLDHENEKVNMYCVSDDQLICALCKLVGRHREHQVASLNDR [D36E], the abundance fitness was 0.036 ± 0.066.
In the case of RGITCLDHENEKVNMYCVSDDQLICALCKLVGRHRHHQVASLNDR [D36H], the abundance fitness was -0.146 ± 0.28.
With RGITCLDHENEKVNMYCVSDDQLICALCKLVGRHRDHRVASLNDR [Q38R], the abundance fitness was -0.002 ± 0.053.
The figure for RGITCLDHENEKVNMYCVSDDQLICALCKLVGRHRDHVVASLNDR [Q38V] is 0.005 ± 0.059.
With RGITCLDHENEKVNMYCVSDDQLICALCKLVGRHRDHAVASLNDR [Q38A], the abundance fitness was -0.113 ± 0.073.
The figure for RGITCLDHENEKVNMYCVSDDQLICALCKLVGRHRDHEVASLNDR [Q38E] is 0.105 ± 0.054; for RGITCLDHENEKVNMYCVSDDQLICALCKLVGRHRDHTVASLNDR [Q38T] it is -0.195 ± 0.1.
With RGITCLDHENEKVNMYCVSDDQLICALCKLVGRHRDHLVASLNDR [Q38L] the figure was -0.259 ± 0.067; with RGITCLDHENEKVNMYCVSDDQLICALCKLVGRHRDHGVASLNDR [Q38G], -0.191 ± 0.052; with RGITCLDHENEKVNMYCVSDDQLICALCKLVGRHRDHCVASLNDR [Q38C], -0.152 ± 0.1.
The figure for RGITCLDHENEKVNMYCVSDDQLICALCKLVGRHRDHDVASLNDR [Q38D] is 0.117 ± 0.089; for RGITCLDHENEKVNMYCVSDDQLICALCKLVGRHRDHWVASLNDR [Q38W] it is -0.369 ± 0.098.
As for RGITCLDHENEKVNMYCVSDDQLICALCKLVGRHRDHFVASLNDR [Q38F], the abundance fitness is -0.69 ± 0.18.
Take RGITCLDHENEKVNMYCVSDDQLICALCKLVGRHRDHNVASLNDR [Q38N]: the abundance fitness is -0.104 ± 0.2.
The figure for RGITCLDHENEKVNMYCVSDDQLICALCKLVGRHRDHMVASLNDR [Q38M] is -0.25 ± 0.085; for RGITCLDHENEKVNMYCVSDDQLICALCKLVGRHRDHIVASLNDR [Q38I] it is -0.357 ± 0.21; for RGITCLDHENEKVNMYCVSDDQLICALCKLVGRHRDHYVASLNDR [Q38Y] it is -0.16 ± 0.21.
The figure for RGITCLDHENEKVNMYCVSDDQLICALCKLVGRHRDHPVASLNDR [Q38P] is -0.092 ± 0.056.
Take RGITCLDHENEKVNMYCVSDDQLICALCKLVGRHWDHQVASLNDR [R35W]: the abundance fitness is -0.602 ± 0.093.
For RGITCLDHENEKVNMYCVSDDQLICALCKLVGRHTDHQVASLNDR [R35T], the abundance fitness is -0.195 ± 0.072.
For the variant RGITCLDHENEKVNMYCVSDDQLICALCKLVGRHHDHQVASLNDR [R35H], the abundance fitness was -0.471 ± 0.32.
Regarding RGITCLDHENEKVNMYCVSDDQLICALCKLVGRHADHQVASLNDR [R35A], the abundance fitness worked out at 0.064 ± 0.053.
Take RGITCLDHENEKVNMYCVSDDQLICALCKLVGRHGDHQVASLNDR [R35G]: the abundance fitness is -0.002 ± 0.05.
Take RGITCLDHENEKVNMYCVSDDQLICALCKLVGRHCDHQVASLNDR [R35C]: the abundance fitness was -0.126 ± 0.071.
Turning to RGITCLDHENEKVNMYCVSDDQLICALCKLVGRHKDHQVASLNDR [R35K], the abundance fitness worked out at 0.019 ± 0.083.
With RGITCLDHENEKVNMYCVSDDQLICALCKLVGRHVDHQVASLNDR [R35V] the figure was -0.05 ± 0.061; with RGITCLDHENEKVNMYCVSDDQLICALCKLVGRHQDHQVASLNDR [R35Q], -0.11 ± 0.19; with RGITCLDHENEKVNMYCVSDDQLICALCKLVGRHEDHQVASLNDR [R35E], 0.09 ± 0.092.
RGITCLDHENEKVNMYCVSDDQLICALCKLVGRHIDHQVASLNDR [R35I]: the abundance fitness worked out at 0.303 ± 0.22.
For the variant RGITCLDHENEKVNMYCVSDDQLICALCKLVGRHPDHQVASLNDR [R35P], the abundance fitness was -0.195 ± 0.069.
